# According to CN114773459A (UNIV SHENZHEN, dated 2022):
# B1: 纳米抗体Nb-H6 (VHH)
# VHH: QLVESGGGLVQAGDSLRLSCAASERALSSFHMGWFRQAPGKQRAFVAAIKWRDGTTYYADSVKGRFTISRDNAKNTVYLQMNSLEPEDTAVYYCYYRGRWGTYWGQGTQVTVSS
# Legend:
# Assay in all cases: BLI, biotinylated S1 variant on streptavidin sensor
# [1] = biological target: T1, SARS-COV2 突变株 S1 Alpha B.1.1.7 (SARS-CoV-2 Alpha B.1.1.7, UniProt P0DTC2 16-685)
# T1 construct: domain: S1; also called Alpha B.1.1.7的S1; Alpha突变体
# [2] = biological target: T2, SARS-COV2 突变株 S1 Delta B.1.617.2 (SARS-CoV-2 Delta B.1.617.2, UniProt P0DTC2 16-685)
# T2 construct: domain: S1; also called Delta B.1.617.2的S1; Delta突变体
# [3] = biological target: T3, SARS-COV2 突变株 S1 Omicron BA.2 (SARS-CoV-2 Omicron BA.2, UniProt P0DTC2 16-685)
# T3 construct: domain: S1; also called Omicron BA.2的S1; Omicron突变体
binder,measurement,setting,value
B1,Kd,[1],1080 nM
same,Kd,[2],1120 nM
same,Kd,[3],200 nM
